Our source for the Kd, koff and kon values is publication PMC6504076, “An in vivo half-life extended prolactin receptor antagonist can prevent STAT5 phosphorylation” (PLoS ONE, 2019).

For test [1], the target named is mouse serum albumin (mouse) (UniProt P07724). Briefly: SPR; Biacore 3000; mouse serum albumin immobilized on CM5 chip (approx. 800 RU); dilution series of ABD-PrlRA injected; 25°C, 40 μl/min; 1:1 Langmuir model. A general note: In SPR one partner is held on a chip, and binding of the other changes the refractive index at the surface.
For test [2], the target named is prolactin receptor (PrlR), extracellular domain (UniProt P16471). Kind of test: SPR; Biacore 3000; PrlR immobilized on CM5 chip (approx. 300 RU); dilution series of analyte injected; 25°C, 40 μl/min; PBS with 0.05% Tween-20; 1:1 Langmuir model.
The target is the same in test [3]. Kind of test: SPR; Biacore 3000; extracellular domain of PrlR immobilized; ABD-PrlRA dilution series with HSA added to 400 nM, incubated 4 h at 4°C; PBS with 0.05% Tween-20 and HSA as running buffer; 25°C, 40 μl/min; 1:1 Langmuir model (called an approximation).
Test [4] shares this target. The test is described as above. The source holds these as a separate data set.
Test [5] has as its target T1, prolactin receptor (PrlR), extracellular domain (UniProt P16471 25-234).
T1 construct: prolactin receptor, extracellular domain, from Sino Biological; No catalogue number printed; source: bought: Sino Biological
T1 sequence (looked up): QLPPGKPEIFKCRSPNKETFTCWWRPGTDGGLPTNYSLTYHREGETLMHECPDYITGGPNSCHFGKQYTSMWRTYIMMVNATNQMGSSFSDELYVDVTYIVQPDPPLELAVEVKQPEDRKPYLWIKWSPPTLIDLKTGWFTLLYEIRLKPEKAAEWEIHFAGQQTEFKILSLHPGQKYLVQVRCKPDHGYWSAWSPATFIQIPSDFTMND
Kind of test: SPR; Biacore 3000; PrlR immobilized on CM5 chip (approx. 300 RU); dilution series of analyte injected; 25°C, 40 μl/min; PBS with 0.05% Tween-20; 1:1 Langmuir model. The conditions noted are these: both partners purified.

The target of test [6] is T1, prolactin receptor (PrlR), …. The test is described as above. Conditions: both partners purified. This is another data set of the same source.

As a reminder, the Kd is the free concentration of one partner at which half of the binding sites on the other are occupied at equilibrium, for simple one-to-one binding. A low value points to tighter binding. By koff is commonly meant a measure of how fast the partners let go of each other. High values mean a short-lived complex, low ones a long-lived complex. Usually kon stands for the second-order rate constant of association. The low end stands for slower complex formation, the high end for faster complex formation.

mouse serum albumin (mouse), sequence (P07724 25-608): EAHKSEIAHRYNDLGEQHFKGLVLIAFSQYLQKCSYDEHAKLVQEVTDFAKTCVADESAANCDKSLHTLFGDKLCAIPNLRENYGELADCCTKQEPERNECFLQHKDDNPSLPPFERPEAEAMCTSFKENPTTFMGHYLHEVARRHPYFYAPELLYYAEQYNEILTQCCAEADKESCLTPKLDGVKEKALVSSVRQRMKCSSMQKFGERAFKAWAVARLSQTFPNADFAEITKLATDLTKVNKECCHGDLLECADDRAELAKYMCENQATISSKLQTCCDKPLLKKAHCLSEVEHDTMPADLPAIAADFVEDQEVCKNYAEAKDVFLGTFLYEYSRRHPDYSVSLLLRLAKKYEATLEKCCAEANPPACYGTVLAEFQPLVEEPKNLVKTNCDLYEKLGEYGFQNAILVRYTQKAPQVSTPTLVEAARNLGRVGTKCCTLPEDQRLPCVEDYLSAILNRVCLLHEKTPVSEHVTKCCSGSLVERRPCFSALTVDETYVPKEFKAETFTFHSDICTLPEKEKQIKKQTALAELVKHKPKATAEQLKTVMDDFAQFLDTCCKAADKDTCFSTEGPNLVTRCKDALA

Take “ABD-PrlRA (fusion of an N-terminal albumin binding domain ABD035 and the prolactin receptor antagonist PrlRA) (from UniProt P01236 29-227)”: in test [1], the Kd is 0.38 nM, the off-rate (koff) was 0.0012 s⁻¹ and the on-rate constant (kon) stood at 3.1e+06 M⁻¹ s⁻¹. In test [2], this molecule registered a Kd of 2.3 nM, a koff of 0.00074 s⁻¹ and a kon of 330000 M⁻¹ s⁻¹.
“complex of HSA and ABD-PrlRA (from UniProt P02768 25-609; P01236 29-227)”: the dissociation constant (Kd) in test [3] worked out at 23 nM. Also, in test [4], the dissociation constant Kd turned out to be 21 nM, the koff was 0.00078 s⁻¹ and the kon is 39000 M⁻¹ s⁻¹.

B1: Prolactin (Prl*), commercially obtained (ligand, UniProt P01236 29-227, looked up)
chain: LPICPGGAARCQVTLRDLFDRAVVLSHYIHNLSSEMFSEFDKRYTHGRGFITKAINSCHTSSLATPEDKEQAQQMNQKDFLSLIVSILRSWNEPLYHLVTEVRGMQEAPEAILSKAVEIEEQTKRLLEGMELIVSQVHPETKENEIYPVWSGLPSLQMADEESRLSAYYNLLHCLRRDSHKIDNYLKLLKCRIIHNNNC
notes: prolactin from Sino Biological; No catalogue number printed; source: bought: Sino Biological
In turn, B1 yielded a dissociation constant (Kd) in test [5] of 23 ± 4 nM.

B2: prolactin receptor antagonist PrlRA (ligand, human)
chain: MGSSRSQVTLRDLFDRAVVLSHYIHNLASEMFSEFDKRYTHGRGFITKAINSCHTSSLATPEDKEQALQMNQKDFLSLIVSILRSWNEPLYHLVTEVRGMQEAPEAILSKAVEIEEQTKRLLERMELIVSQVHPETKENEIYPVWSGLPSLQMADEESRLSAYYNLLHCLRRDSHKIDNYLKLLRCRIIHNNNC
For the molecule B2, in test [6], the affinity, expressed as Kd, was 3.4 ± 0.5 nM; the koff came to 0.00088 s⁻¹; the kon was 260000 M⁻¹ s⁻¹.

B3: prolactin (Prl), produced in house (ligand, human)
chain: MGSSLPICPGGAARCQVTLRDLFDRAVVLSHYIHNLSSEMFSEFDKRYTHGRGFITKAINSCHTSSLATPEDKEQAQQMNQKDFLSLIVSILRSWNEPLYHLVTEVRGMQEAPEAILSKAVEIEEQTKRLLEGMELIVSQVHPETKENEIYPVWSGLPSLQMADEESRLSAYYNLLHCLRRDSHKIDNYLKLLKCRIIHNNNC
notes: prolactin, human; the Prl gene itself is not separately called human; also called in house produced Prl
For the molecule B3, in test [6], the Kd worked out at 8.4 ± 0.2 nM, the koff stood at 0.0012 s⁻¹ and the on-rate (kon) amounted to 140000 M⁻¹ s⁻¹.
